Test results published in patent US20230265183A1 (MABWELL SHANGHAI BIOSCIENCE, published 2023).

What was measured:
[1] = molecular target: T1, human Nectin-4 (human, UniProt Q96NY8 32-510); experiment: cell-based or functional assay
T1 sequence (looked up): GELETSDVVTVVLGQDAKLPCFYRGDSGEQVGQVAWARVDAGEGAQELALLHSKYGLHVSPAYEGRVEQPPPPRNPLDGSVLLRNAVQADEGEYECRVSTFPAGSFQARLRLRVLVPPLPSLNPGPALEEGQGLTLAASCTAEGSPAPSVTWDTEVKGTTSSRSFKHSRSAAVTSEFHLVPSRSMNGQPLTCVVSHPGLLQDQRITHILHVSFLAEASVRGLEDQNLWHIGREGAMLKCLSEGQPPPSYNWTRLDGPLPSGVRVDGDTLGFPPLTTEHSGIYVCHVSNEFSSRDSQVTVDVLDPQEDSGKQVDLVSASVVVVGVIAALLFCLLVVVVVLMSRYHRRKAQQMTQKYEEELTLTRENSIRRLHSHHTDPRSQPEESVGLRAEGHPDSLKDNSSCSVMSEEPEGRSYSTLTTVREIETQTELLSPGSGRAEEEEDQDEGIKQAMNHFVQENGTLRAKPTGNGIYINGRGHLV

[2] = molecular target: T1, human Nectin-4; experiment: cell-based or functional assay; remark: listed apart in the source
[3] = molecular target: T1, human Nectin-4; experiment: FACS on BT474 cells
Procedure: (§1) The solutions of different concentrations were added to 384-well plates, 10 µl per well.
(§2) BT474 cells (breast cancer cells) expressing Nectin-4 on the cell surface were collected by centrifugation at 100 g at room temperature for 5 minutes, and then the cells were washed with PBS containing 0.5% BSA once and were centrifuged at 100 g at room temperature for 5 minutes. […] After incubation at 4° C. for 1 hour, fluorescently labeled goat anti-human IgG secondary antibody was added. After continued incubation at 4° C. for 1 hour, mean fluorescence readings of the cell populations were analyzed by a flow cytometer.

[4] = molecular target: T1, human Nectin-4; experiment: FACS on BT474 cells; remark: listed apart in the source
Procedure: as §1, §2

[5] = molecular target: T2, murine Nectin4 (NP_082169) (murine, UniProt Q8R007 31-508); experiment: FACS on HEK-muNectin4 cells
T2 construct: whole, on cells; also called muNectin4
T2 sequence (looked up): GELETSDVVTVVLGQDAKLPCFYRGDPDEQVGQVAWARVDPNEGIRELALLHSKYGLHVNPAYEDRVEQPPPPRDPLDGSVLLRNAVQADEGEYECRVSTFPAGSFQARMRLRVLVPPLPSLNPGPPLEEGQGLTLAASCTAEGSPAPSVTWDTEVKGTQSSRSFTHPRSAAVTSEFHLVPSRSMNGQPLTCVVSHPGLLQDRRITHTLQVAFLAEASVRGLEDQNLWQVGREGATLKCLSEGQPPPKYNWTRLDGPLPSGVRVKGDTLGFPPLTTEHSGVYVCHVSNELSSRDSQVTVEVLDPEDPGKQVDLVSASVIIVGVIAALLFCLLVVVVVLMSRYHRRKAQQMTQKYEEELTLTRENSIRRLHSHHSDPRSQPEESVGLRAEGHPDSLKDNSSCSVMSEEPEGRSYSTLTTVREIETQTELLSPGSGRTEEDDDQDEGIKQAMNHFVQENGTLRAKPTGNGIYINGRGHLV

[6] = molecular target: T3, human Nectin-4(C-6His), Novoprotein Cat# CJ19 (human, UniProt Q96NY8 32-349); experiment: ELISA, plate coated with 1 µg/ml human Nectin-4(C-6His), HRP-labelled secondary antibody, absorbance at 450 nm
T3 construct: Bought protein; also called recombinant human Nectin4 protein; antigen Nectin-4
T3 sequence: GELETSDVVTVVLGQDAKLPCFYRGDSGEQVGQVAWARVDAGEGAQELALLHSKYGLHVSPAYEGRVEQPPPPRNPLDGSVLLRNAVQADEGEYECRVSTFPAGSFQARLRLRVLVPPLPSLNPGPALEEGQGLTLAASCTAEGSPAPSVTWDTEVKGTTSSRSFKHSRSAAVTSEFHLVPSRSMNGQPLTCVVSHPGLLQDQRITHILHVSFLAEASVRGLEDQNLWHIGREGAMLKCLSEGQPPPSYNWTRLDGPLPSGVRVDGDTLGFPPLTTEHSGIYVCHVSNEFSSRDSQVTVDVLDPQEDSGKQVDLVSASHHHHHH
Procedure: (§3) Plates were coated with 1 µg/ml of the antigens and incubated at 4° C. overnight; next, antibodies serially diluted were added into the plates. Finally, the HRP-labeled secondary antibody was added, and absorbance at 450 nm was detected.

[7] = molecular target: T4, human Nectin-2(C-6His), Novoprotein Cat# C440 (human, UniProt Q92692 32-360, limits assumed); experiment: ELISA, plate coated with 1 µg/ml human Nectin-2(C-6His), absorbance at 450 nm. The text names only a goat anti-rabbit HRP secondary antibody
T4 sequence: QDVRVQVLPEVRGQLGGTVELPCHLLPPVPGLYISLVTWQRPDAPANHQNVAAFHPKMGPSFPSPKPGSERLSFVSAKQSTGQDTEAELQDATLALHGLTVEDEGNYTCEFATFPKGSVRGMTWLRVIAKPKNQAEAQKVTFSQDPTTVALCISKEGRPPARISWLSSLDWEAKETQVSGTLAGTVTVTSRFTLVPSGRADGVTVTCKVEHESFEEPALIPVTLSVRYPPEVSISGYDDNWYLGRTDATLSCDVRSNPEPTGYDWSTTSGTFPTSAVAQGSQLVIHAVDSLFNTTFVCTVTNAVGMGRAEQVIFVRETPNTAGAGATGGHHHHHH
Procedure: as §3

[8] = molecular target: T5, Cyno Nectin4 (Cyno, UniProt Q96NY8 32-510 (human entry)); experiment: FACS on HEK-cynoNectin4 cells
T5 construct: Expressed on HEK293 cells (HEK-cynoNectin4)
T5 chain: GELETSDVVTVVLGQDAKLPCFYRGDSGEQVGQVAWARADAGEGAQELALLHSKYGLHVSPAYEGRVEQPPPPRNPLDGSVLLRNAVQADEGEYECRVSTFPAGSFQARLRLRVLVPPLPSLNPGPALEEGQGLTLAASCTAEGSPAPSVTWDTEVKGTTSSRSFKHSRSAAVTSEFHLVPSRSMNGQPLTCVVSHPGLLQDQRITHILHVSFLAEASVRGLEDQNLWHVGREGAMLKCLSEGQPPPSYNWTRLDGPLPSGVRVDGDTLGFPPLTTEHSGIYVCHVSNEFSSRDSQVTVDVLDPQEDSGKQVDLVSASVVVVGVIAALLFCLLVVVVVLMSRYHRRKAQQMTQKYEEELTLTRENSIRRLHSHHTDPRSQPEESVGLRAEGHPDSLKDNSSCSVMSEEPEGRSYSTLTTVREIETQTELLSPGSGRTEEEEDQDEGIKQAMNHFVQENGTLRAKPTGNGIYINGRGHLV

[9] = molecular target: T6, human Nectin-1(C-6His), Novoprotein Cat# C492 (human, UniProt Q15223 31-334, limits assumed); experiment: ELISA, plate coated with 1 µg/ml human Nectin-1(C-6His), absorbance at 450 nm. The text names only a goat anti-rabbit HRP secondary antibody
T6 sequence: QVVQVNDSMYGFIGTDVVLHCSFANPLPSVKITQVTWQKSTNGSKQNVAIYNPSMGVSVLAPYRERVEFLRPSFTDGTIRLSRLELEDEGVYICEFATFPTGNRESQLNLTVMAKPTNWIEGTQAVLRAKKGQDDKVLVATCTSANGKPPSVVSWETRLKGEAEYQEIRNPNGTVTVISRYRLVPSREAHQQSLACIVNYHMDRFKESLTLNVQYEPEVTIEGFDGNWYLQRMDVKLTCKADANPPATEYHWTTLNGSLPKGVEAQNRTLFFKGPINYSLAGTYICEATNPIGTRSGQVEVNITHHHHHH
Procedure: as §3

[10] = molecular target: T1, human Nectin-4; experiment: FACS on CHO-huNectin4 S8 cells
[11] = molecular target: T7, His-tagged human NECTIN4 (human, UniProt Q96NY8 32-349); experiment: SPR (BIAcore S200), antigen on CAP chip, antibody as analyte, 1:1 fit
T7 construct: Antigen of the BIAcore assay; also called antigen; recombinant NECTIN4 protein; not shown: His tag
T7 sequence: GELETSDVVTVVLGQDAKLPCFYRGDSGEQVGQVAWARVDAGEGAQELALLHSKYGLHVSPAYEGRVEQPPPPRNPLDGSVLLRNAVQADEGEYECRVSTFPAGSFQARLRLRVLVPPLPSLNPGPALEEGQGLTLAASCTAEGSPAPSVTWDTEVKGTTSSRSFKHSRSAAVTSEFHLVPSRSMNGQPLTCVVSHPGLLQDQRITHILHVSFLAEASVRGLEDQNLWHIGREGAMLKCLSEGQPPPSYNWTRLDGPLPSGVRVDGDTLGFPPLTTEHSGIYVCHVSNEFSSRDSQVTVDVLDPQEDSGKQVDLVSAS
Procedure: Interactions between the antibodies and the antigen were measured using a BIAcore instrument S200 from GE. Referring to the instructions provided in Biotin Capture Kit from GE Healthcare, the analytical channel and the control sample channel on CAP sensor chip were first coupled with antigen i.e. His-tagged human NECTIN4, then samples containing antibodies (diluted 3-fold from an initial concentration of 20 nM respectively and solutions of each antibody of 8 concentrations were obtained totally, and the concentration 0.741 nM was set to be repeated) were allowed to flow through both the analytical channel and the sample channel, and the photoreactions upon antibody-antigen binding were measured. Association constant Kon and dissociation constant Koff and affinity constant KD of each antibody were finally obtained by instrument software fitting (1:1 binding mode) analysis.

Binder | EC50 (ng/ml), inhibition of proliferation of BT474 cells [1] | Percentage of cell killing at the highest concentration [1] | Endocytosis efficiency (%) [2] | EC50 [3] | also measured
murine antibody 5M21 (antibody, V domains shown, Murine monoclonal antibody from hybridoma; also called mIgG 5M21) VH: QVQLQQSGPELVKPGASVRITCKASGYTFTTYYIHWVKQRPGQGLEWIGWIYPGNVNTKYNEKFKGKATLTADKSSSTAYMQLSSLTSEDSAVYFCARGLYYFDYWGQGTTLTVSS VL: SIVMTQTPKFLLVSAGDRLTITCKASQSVSNDVAWYQQKPGQSPKLLIYYASNRYTGVPDRFTGSGYGTDFTFTISTVQAEDLAVYFCQQDYSSPYTFGGGTKLEIK | 42.3 ng/mL | 33.5% | 69% | 25.4 mg/L | –
murine antibody 20M12 (antibody, V domains shown, Murine monoclonal antibody from hybridoma; also called mIgG 20M12) VH: QVQLQQSGPELVKPGASVRISCKASGYTFTSYYIHWVKQRPGQGLEWIGWIYPGNANNKYNENFKGKATLTADKSSSTAYMQLSSLTSEDSAVYFCARSVYYFDYWGQGTTLTVSS VL: SVVMTQTPKFLLVSAGDRVTITCKASQSVSNDVAWYQQKPGQSPKLLIYYASNRNTGVPDRFTGSGYGTDFTFNISTVQAEDLAVYFCQQDYSSPYTFGGGTKLEIK | – | – | – | – | EC50 [4]: 83.8 mg/L
murine antibody 30J3 (antibody, V domains shown, Murine monoclonal antibody from hybridoma; also called mIgG 30J3) VH: EVQLQQSGPDLVKPGASVKISCKASGYSFTDYYMHWVKQSRGKGLEWIGRVNPNNGNTLYNQKFRGKAILTVDKSSSTAYMELRSLTSDDSAVYYCAREDRYAFAYWGQGTLVTVSA VL: DIVLTQSPASLAVSLGQRATISCRASQSVSTSSYTYMHWYQQKPGQPPKLLIKYASNLESGVPARFIGSGSGTDFTLNIHPVEEEDTATYYCQHTWEIPYTFGGGTKLEIK | 16.9 ng/mL | 52.8% | 56% | 75 mg/L | –
42D20 hz63 (antibody, V domains shown, Humanized) VH: QVQLQESGPGLVKPSETLSLTCTVSGFSLIDYGVSWIRQPPGKGLEWIGVIWGGGKIYYNSVLKSRVTISKDNSKSQVSLKLSSVTAADTAVYYCAKQGGLLFYAMDYWGQGTLVTVSS VL: DIVMTQSPDSLAVSLGERATINCKSSQSLLNTYSQKNYLAWYQQKPGQSPKLLIYFASTRESGVPDRFSGSGSETDFTLTISSLQAEDLAVYFCQQHYNTPFTFGAGTKLELKR | – | – | – | – | EC50 [5]: 4.7 mg/L; EC50 (read off the curve) [6]: ~0.1 mg/L; binding result [7]: no binding (tested: 10 µg/ml); EC50 [8]: 2.45 to 4.06 mg/L; binding result [9]: no binding (tested: about 2.5 µg/ml (last point)); EC50 [10]: 0.946 mg/L; Kd [11]: 1.8 nM
